Laboratory results taken from paper PMC10104473.

Molecular target: TEA domain transcription factor 1 (TEAD1) on the HuProt Human Proteome Microarray v3.1 (human) (UniProt P28347)
Test: peptide or protein array; purified FLAG-Lamin A/C (WT or Q353R) applied to a HuProt Human Proteome Microarray v3.1; two samples each, averages of the pairs compared

Chain of UniProt P28347 (P28347 whole entry, the tested form may be a part): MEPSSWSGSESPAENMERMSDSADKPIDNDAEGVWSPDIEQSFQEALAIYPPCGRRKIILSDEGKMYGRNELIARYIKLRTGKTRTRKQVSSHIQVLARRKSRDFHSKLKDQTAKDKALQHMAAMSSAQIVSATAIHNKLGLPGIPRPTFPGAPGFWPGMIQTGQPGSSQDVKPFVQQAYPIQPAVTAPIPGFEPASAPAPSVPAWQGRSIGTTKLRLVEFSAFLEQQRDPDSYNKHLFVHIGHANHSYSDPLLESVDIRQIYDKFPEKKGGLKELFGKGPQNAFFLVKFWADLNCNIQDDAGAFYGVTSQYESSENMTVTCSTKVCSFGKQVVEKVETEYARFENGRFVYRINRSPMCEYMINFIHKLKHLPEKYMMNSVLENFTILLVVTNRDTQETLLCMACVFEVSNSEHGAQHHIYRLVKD

fold affinity against WT Lamin A/C: 8 fold
Substance: FLAG-tagged Q353R Lamin A/C (from UniProt P02545 1-646) (natural protein)
